Changes are numbered by the printed parent chain.
Assays:
[1] = test system: T1, dCas12j-8 E258R+E157R E258R;E157R;D369A;E567A;D658A (bacteriophage (metagenome)); conditions: HEK293T cells; panel 1d (compare within a panel only); scale: mean GFP / mean GFP of wild type, printed, no background subtraction
T1 sequence: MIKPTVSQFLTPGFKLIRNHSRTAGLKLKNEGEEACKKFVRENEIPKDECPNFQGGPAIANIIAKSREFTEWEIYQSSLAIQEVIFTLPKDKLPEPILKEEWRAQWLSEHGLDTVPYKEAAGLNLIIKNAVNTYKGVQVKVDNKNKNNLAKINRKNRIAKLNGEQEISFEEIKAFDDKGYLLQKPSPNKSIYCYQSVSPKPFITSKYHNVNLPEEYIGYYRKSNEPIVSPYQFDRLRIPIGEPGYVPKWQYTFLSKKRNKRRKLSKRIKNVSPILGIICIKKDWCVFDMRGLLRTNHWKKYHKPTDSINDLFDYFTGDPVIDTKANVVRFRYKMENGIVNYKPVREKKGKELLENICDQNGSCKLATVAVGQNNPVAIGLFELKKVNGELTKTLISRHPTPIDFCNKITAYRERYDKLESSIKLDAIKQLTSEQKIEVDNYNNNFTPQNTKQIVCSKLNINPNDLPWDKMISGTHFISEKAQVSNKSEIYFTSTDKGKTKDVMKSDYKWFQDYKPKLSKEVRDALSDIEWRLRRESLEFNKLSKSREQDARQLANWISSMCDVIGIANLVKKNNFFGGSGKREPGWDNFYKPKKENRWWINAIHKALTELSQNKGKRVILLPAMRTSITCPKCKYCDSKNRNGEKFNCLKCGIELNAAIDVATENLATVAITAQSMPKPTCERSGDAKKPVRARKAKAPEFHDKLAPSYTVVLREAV

[2] = test system: T2, dCas12j-8 E258R+D495R+E547R E258R;D495R;E547R;D369A;E567A;D658A (bacteriophage (metagenome)); conditions: HEK293T cells; panel 1e (compare within a panel only); scale: mean GFP / mean GFP of wild type, printed, no background subtraction
T2 sequence: T1 sequence with R157E, D495R, E547R

[3] = test system: T3, dCas12j-8 E258R+D313R+D495R+E547R E258R;D313R;D495R;E547R;D369A;E567A;D658A (bacteriophage (metagenome)); conditions: HEK293T cells; panel 1e (compare within a panel only); scale: mean GFP / mean GFP of wild type, printed, no background subtraction
T3 sequence: T1 sequence with R157E, D313R, D495R, E547R

Sequence: CUUUCAAGACUAAUAGAUUGCUCCUUACGAGGAGACACUCCCUAUCAGUGAUAGAG / TTNACTCCCTATCAGTGATAGAG / CTCTATCACTGATAGGGAGTNAA [TetO]
- binding signal [1]: 2.16
- binding signal [2]: 4.13
- binding signal [3]: 4.81
